# From patent US20260217820A1 (ERASMUS UNIVERSITY MEDICAL CENTER ROTTERDAM, published 2026)
# B1: PR001310 anti-HELxCD3 control Bispecific T cell engager (bispecific antibody)
# chain: DIVLTQSPAIMSASPGEKVTMTCSASSSVNYMYWYQQKSGTSPKRWIYDTSKLASGVPVRFSGSGSGTSYSLTISSMETEDAAEYYCQQWGRNPTFGGGTKLEIKRTVAAPSVFIFPPSDEQLKSGTASVVCLLNNFYPREAKVQWKVDNALQSGNSQESVTEQDSKDSTYSLSSTLTLSKADYEKHKVYACEVTHQGLSSPVTKSFNRGECEVQLVESGGGLVQPGGSLKLSCAASGFTFNTYAMNWVRQASGKGLEWVGRIRSKYNNYATYYADSVKDRFTISRDDSKSTLYLQMNSLKTEDTAVYYCVRHGNFGNSYVSWFAYWGQGTLVTVSSASTKGPSVFPLAPSSKSTSGGTAALGCLVKDYFPEPVTVSWNSGALTSGVHTFPAVLQSSGLYSLSSVVTVPSSSLGTQTYICNVNHKPSNTKVDKKVEPKSC
# heavy: EVQLQQSGAELMKPGASVKISCKASGYTFSDYWIEWVKQRPGHGLEWIGEILPGSGSTNYHERFKGKATFTADTSSSTAYMQLNSLTSEDSGVYYCLHGNYDFDGWGQGTTLTVSSASTKGPSVFPLAPSSKSTSGGTAALGCLVKDYFPEPVTVSWNSGALTSGVHTFPAVLQSSGLYSLSSVVTVPSSSLGTQTYICNVNHKPSNTKVDKKVEPKSC
# light: QAVVTQEPSLTVSPGGTVTLTCRSSTGAVTTSNYANWVQQKPGQAPRGLIGGTNKRAPWTPARFSGSLLGDKAALTLLGAQPEDEAEYFCALWYSNLWVFGGGTKLTVLGQPKAAPSVTLFPPSSEELQANKATLVCLISDFYPGAVTVAWKADSSPVKAGVETTTPSKQSNNKYAASSYLSLTPEQWKSHRSYSCQVTHEGSTVEKTVAPTECS
# notes: Control engager; HEL = hen egg lysozyme; Same CD3 arm as PR004384; also called control anti-HELxCD3 Bispecific T cell engager
# B2: recombinant monoclonal antibody PR004382 (antibody, human IgG1, kappa)
# heavy: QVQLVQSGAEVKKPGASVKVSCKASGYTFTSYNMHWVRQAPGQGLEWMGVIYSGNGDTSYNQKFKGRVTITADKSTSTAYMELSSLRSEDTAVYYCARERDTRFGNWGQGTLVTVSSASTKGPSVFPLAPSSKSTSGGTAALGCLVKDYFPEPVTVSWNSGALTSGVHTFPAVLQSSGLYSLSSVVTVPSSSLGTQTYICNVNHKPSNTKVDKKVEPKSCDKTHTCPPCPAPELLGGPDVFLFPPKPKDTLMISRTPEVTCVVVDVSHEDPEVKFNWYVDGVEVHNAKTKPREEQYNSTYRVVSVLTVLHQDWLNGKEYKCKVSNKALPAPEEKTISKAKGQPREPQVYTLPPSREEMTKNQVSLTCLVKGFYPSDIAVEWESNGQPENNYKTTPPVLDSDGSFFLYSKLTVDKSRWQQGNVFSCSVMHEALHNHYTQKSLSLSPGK
# light: DIVMTQSPDSLAVSLGERATINCRASESVDIYGNSFMHWYQQKPGQPPKLLIYLASNLESGVPDRFSGSGSGTDFTLTISSLQAEDVAVYYCQQNNEDPYTFGGGTKVEIKRTVAAPSVFIFPPSDEQLKSGTASVVCLLNNFYPREAKVQWKVDNALQSGNSQESVTEQDSKDSTYSLSSTLTLSKADYEKHKVYACEVTHQGLSSPVTKSFNRGEC
# notes: compared with a human IgG1 isotype control; also called PR004382 anti-CD117 antibody; copies: 2 + 2
# Tests used:
# [1] = target: T1, Rhesus Macaque CD117 on CD34-enriched bone marrow hematopoietic stem cells (Rhesus Macaque, UniProt F6V858 26-976); assay: flow cytometry on Rhesus Macaque CD34-enriched bone marrow cells gated on CD34+ CD117+, R-Phycoerythrin goat anti-human F(ab')2 detection
# T1 construct: whole, on cells; also called CD117 of Rhesus Macaque; Rhesus Macaque CD117-positive hematopoietic stem cells
# [2] = target: T2, Human CD16a (V176) protein (NovoProtein, cat #C441) (human, UniProt P08637 17-208); assay: BLI (Octet Red 96e), CD16a (V176) on HIS1K sensors, antibody in solution, 1:1 global fit
# T2 construct: also called CD16a receptor
# [3] = target: T3, CD117 protein (SinoBiological, cat #11996-H08H) (UniProt P10721-2 26-516); assay: ELISA on plate-coated CD117 protein, detection with anti-human IgG (Fc specific)-peroxidase, OD at 450 nm
# T3 construct: Bought reagent
# [4] = target: T3, CD117 protein (SinoBiological, cat …); assay: ELISA, CD117 protein coated
# T2 sequence (P08637 17-208 F176V limits assumed): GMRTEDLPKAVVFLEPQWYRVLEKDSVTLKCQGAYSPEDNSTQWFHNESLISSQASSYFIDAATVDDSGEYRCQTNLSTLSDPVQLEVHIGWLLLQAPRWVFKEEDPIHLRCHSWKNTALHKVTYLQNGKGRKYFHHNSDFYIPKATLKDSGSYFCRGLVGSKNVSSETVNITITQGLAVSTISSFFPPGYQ
# T3 sequence (P10721 other isoform, or with tags, fused parts or gaps H08H H08H limits assumed): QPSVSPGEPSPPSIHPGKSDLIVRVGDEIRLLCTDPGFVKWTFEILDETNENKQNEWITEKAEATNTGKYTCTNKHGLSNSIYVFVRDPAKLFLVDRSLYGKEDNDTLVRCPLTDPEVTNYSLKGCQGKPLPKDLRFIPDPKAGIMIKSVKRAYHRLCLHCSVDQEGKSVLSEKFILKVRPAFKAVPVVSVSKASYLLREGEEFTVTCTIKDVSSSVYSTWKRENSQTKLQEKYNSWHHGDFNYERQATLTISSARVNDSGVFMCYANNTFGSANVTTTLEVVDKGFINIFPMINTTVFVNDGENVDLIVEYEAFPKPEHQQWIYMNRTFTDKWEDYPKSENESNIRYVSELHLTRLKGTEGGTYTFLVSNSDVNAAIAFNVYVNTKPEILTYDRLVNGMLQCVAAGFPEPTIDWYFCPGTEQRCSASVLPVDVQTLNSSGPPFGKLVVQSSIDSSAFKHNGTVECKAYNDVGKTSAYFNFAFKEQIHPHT
Binder,binding result [1],Kd [2],koff [2],kon [2],EC50 (read off the curve) [3],EC50 [4]
B1,no binding,–,–,–,–,–
B2,–,27.2 nM,0.00933 s⁻¹,343000 M⁻¹ s⁻¹,~0.1 nM,0.0155 nM
